Measurements taken from patent US20030073236A1 (published 2003).

B1: p193 (mouse p193, full length) (other)
chain: MVGELRYREFRVPLGPGLHAYPDELIRQRVGHNGHPEYQIRWLILRRGDDGDRDSTVDCKAEHILLWMSDDEIYANCHKMLGENGQVIAPSRESTEAGALDKSVLGEMETDVKSLIQRALRQLEECVGTVPPAPLLHTVHVLSAYASIEPLTGIFKDRRVVNLLMHMLSSPDYQIRWSAGRMIQALSSHDAGTRTQILLSLSQQEAIEKHLDFDSRCALLALFAQATLTEHPMSFEGVQLPQVPGRLLFSLVKRYLHVTFLLDRLNGDAGDQGAQNNFSPEELNVGRGRLELEFSMAMGTLISELVQAMRWDGASSRPESSSSSTFQPRPAQFRPYTQRFRRSRRFRPRASFASFNTYALYVRDTLRPGMRVRMLENYEEIAAGDEGQFRQSNDGVPPAQVLWDSTGHTYWVHWHMLEILGFEEDIEDVIDIEELQELGANGALSIVPPSQRWKPITQLFAEPYVVPEEEDREESENLTQAEWWELLFFIRQLSEAERLHIVDLLQDHLEEERVLDYDMLPELTVPVDLAQDLLLSLPQQLEDSALRDLFSCSVYRKYGPEVLVGHLSYPFVPGAQPNLFGANEESEAKDPPLQSASPALQRLVESLGPEGEVLVELEQALGSEAPQETEVKSCLLQLQEQPQPFLALMRSLDTSASNKTLHLTVLRILMQLVNFPEALLLPWHEAMDACVTCLRSPNTDREVLQELIFFLHRLTTTSRDYAVILNQHGARDAISKVLEKHRGKLELAQELRDMVSKCEKHAHLYRKLTTNILGGCIQMVLGQIEDHRRTHRPIQIPFFDVFLRYLCQGSSEEMKKNRYWEKVEVSSNPQRASRLTDRNPKTYWESSGRAGSHFITLHMRPGVIIRQLTLLVAGEDSSYMPAWVVVCGGNSIKSVNKELNTVNVMPSASRVTLLENLTRFWPIIQIRIKRCQQGGINTRIRGLEVLGPKPTFWPVFREQLCRHTRLFYMVRAQAWSQDIAEDRRSLLHLSSRLNGALRHEQNFAERFLPDMEAAQALSKTCWEALVSPLVQNITSPDEDSTSSLGWLLDQYLGCREAAYNPQSRAAAFSSRVRRLTHLLVHVEPREAAPPVVAIPRSKGRNRIHDWSYLITRGLPSSIMKNLTRCWRSVVEEQMNKFLSASWKDDDFVPRYCERYYVLQKSSSELFGPRAAFLLAMRNGCADAVRRLPFLRAAHVKQQFARHIDQRIQGSRMGGARGMEMLAQLQRCLESVLIFSPLEIATTFEHYYQHYMADRLLSVGSSWLEGAVLEQIGPCFPSRLPQQMLQSLNVSEELQRQFHVYQLQQLDQELLKLEDTEKKIQVAHEDSGREDKSKKEEAIGEAAAVAMAEEEDQGKKEEGEEEGEGEDEEEERYYKGTMPEVCVLVVTPRFWPVASVCQMLNPATCLPAYLRGTINHYTNFYSKSQSRSSLEKEPQRRLQWTWQGRAEVQFGGQILHVSTVQMWLLLHLNNQKEVSVESLQAISELPPDVLHRAIGPLTSSRGPLDLQEQKNVPGGVLKIRDDSEEPRPRRGNVWLIPPQTYLQAEAEEGRNMEKRRNLLNCLVVRILKAHGDEGLHVDRLVYLVLEAWEKGPCPARGLVSSLGRGATCRSSDVLSCILHLLVKGTLRRHDDRPQVLYYAVPVTVMEPHMESLNPGSAGPNPPLTFHTLQIRSRGVPYASCTDNHTFSTFR
modifications: 35S-methionine labelled in the immune precipitation experiments
notes: also called in vitro translated p193
B2: p193myc (p193 protein harboring a C-terminal myc epitope tag, from CMV-p193myc) (other, not shown: small tags and cut ends)
chain: MVGELRYREFRVPLGPGLHAYPDELIRQRVGHNGHPEYQIRWLILRRGDDGDRDSTVDCKAEHILLWMSDDEIYANCHKMLGENGQVIAPSRESTEAGALDKSVLGEMETDVKSLIQRALRQLEECVGTVPPAPLLHTVHVLSAYASIEPLTGIFKDRRVVNLLMHMLSSPDYQIRWSAGRMIQALSSHDAGTRTQILLSLSQQEAIEKHLDFDSRCALLALFAQATLTEHPMSFEGVQLPQVPGRLLFSLVKRYLHVTFLLDRLNGDAGDQGAQNNFSPEELNVGRGRLELEFSMAMGTLISELVQAMRWDGASSRPESSSSSTFQPRPAQFRPYTQRFRRSRRFRPRASFASFNTYALYVRDTLRPGMRVRMLENYEEIAAGDEGQFRQSNDGVPPAQVLWDSTGHTYWVHWHMLEILGFEEDIEDVIDIEELQELGANGALSIVPPSQRWKPITQLFAEPYVVPEEEDREESENLTQAEWWELLFFIRQLSEAERLHIVDLLQDHLEEERVLDYDMLPELTVPVDLAQDLLLSLPQQLEDSALRDLFSCSVYRKYGPEVLVGHLSYPFVPGAQPNLFGANEESEAKDPPLQSASPALQRLVESLGPEGEVLVELEQALGSEAPQETEVKSCLLQLQEQPQPFLALMRSLDTSASNKTLHLTVLRILMQLVNFPEALLLPWHEAMDACVTCLRSPNTDREVLQELIFFLHRLTTTSRDYAVILNQHGARDAISKVLEKHRGKLELAQELRDMVSKCEKHAHLYRKLTTNILGGCIQMVLGQIEDHRRTHRPIQIPFFDVFLRYLCQGSSEEMKKNRYWEKVEVSSNPQRASRLTDRNPKTYWESSGRAGSHFITLHMRPGVIIRQLTLLVAGEDSSYMPAWVVVCGGNSIKSVNKELNTVNVMPSASRVTLLENLTRFWPIIQIRIKRCQQGGINTRIRGLEVLGPKPTFWPVFREQLCRHTRLFYMVRAQAWSQDIAEDRRSLLHLSSRLNGALRHEQNFAERFLPDMEAAQALSKTCWEALVSPLVQNITSPDEDSTSSLGWLLDQYLGCREAAYNPQSRAAAFSSRVRRLTHLLVHVEPREAAPPVVAIPRSKGRNRIHDWSYLITRGLPSSIMKNLTRCWRSVVEEQMNKFLSASWKDDDFVPRYCERYYVLQKSSSELFGPRAAFLLAMRNGCADAVRRLPFLRAAHVKQQFARHIDQRIQGSRMGGARGMEMLAQLQRCLESVLIFSPLEIATTFEHYYQHYMADRLLSVGSSWLEGAVLEQIGPCFPSRLPQQMLQSLNVSEELQRQFHVYQLQQLDQELLKLEDTEKKIQVAHEDSGREDKSKKEEAIGEAAAVAMAEEEDQGKKEEGEEEGEGEDEEEERYYKGTMPEVCVLVVTPRFWPVASVCQMLNPATCLPAYLRGTINHYTNFYSKSQSRSSLEKEPQRRLQWTWQGRAEVQFGGQILHVSTVQMWLLLHLNNQKEVSVESLQAISELPPDVLHRAIGPLTSSRGPLDLQEQKNVPGGVLKIRDDSEEPRPRRGNVWLIPPQTYLQAEAEEGRNMEKRRNLLNCLVVRILKAHGDEGLHVDRLVYLVLEAWEKGPCPARGLVSSLGRGATCRSSDVLSCILHLLVKGTLRRHDDRPQVLYYAVPVTVMEPHMESLNPGSAGPNPPLTFHTLQIRSRGVPYASCTDNHTFSTFR
notes: Expressed in NIH-3T3 cells co-transfected with CMV-T-Ag; also called CMV-p193myc product

Assays:
[1] = biological target: T1, SV40 Large T Antigen (T-Ag) (SV40, UniProt P03070 1-708); experiment: co-immunoprecipitation from metabolically labeled AT-2 cardiomyocytes
T1 construct: also called SV40 T-Ag; recombinant SV40 T-Ag

[2] = biological target: T1, SV40 Large T Antigen (T-Ag); experiment: immune precipitation / Western blot, NIH-3T3 cells co-transfected with CMV-p193myc and CMV-T-Ag

Binder	binding result [1]	binding result [2]
B1	binds	
B2		binds
